# Reference: the domain aggregation screens of Martell et al. (2025)
# Assay: soluble fraction after stress (log2 fold change); higher = more stays soluble; pooled small domains, quantitative proteomics
# Conditions: stress: 75 degC
# 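Further: 20 min heating vs room temperature control held 20 min.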
row,Sequence,soluble fraction (log2)
1,HMDTIVHFLSDGRRITVRIKRNARKNIILRPMAADAVSATIPPWLGRRQLSAWLSEREDLLLSVLSRAA,-3.34
2,HMDTLESYVKRLEKLEGIADSFKGVSKAFALQAGREIRIMVESEKITDEEAVWLSKDIARRIENELEYPG,-0.331
3,HMDTNKMLIVNSISNGMKRLQELQDPQLAEIQKTFSGLDEQKATSAQLAQINNIINNRIAEIEG,0.23
4,HMDTNPKVIITMDGVNVRSSASTGSDILFIAEKGEEYELISESGDFYKILYEGNKEGYVASWLVETSE,0.239
5,HMDTNVKLLSPKQADFFASKLANNQNFSSKFAKVGEDMQPFIERISSELQQDISQVIVYMPYLLESGFKQ,-0.328
6,HMDTNVPVPNVNGMTLNQAKAALEAAGFHVAVNWLGEKSDNNSVISYEPNGSAAKGTTITITVIAQPEQDG,0.0988
7,HMDTPPGLSPEEQAIIDIITTRGDATINELTASIDIPTPRLMGMLVDMEFRSLIAAIPGGRYRI,-1.82
8,HMDTRQFWEQWVADEIRTFEHKDRKQLFGWFEGNKPKLGQMKKLGYGDLLTKVQTSWDEIYQQKE,0.0857
9,HMDTRSSARKALDAVNLLLETYGAKAYQHSYEIAGRRQQFQTPGDFMAFRSRLMAEVATEENAARINA,-0.211
10,HMDTSKIDYSEFITMLDKGEVESVVLKSDTLTVTLKHGTGMAAQTKTVTLMEDLSELTKRLEKAGVKSFDK,0.614
11,HMDTVIAEVTASILNLRRSAGTSSDIIGKLNKGEKVSIIGGSGNWKNVRTSGGITGWVYHEYLSTY,-1.46
12,HMDTYDSIDSILEERHLSRRKLAQAIGLPPSTFQSMMSRKSGMTLEVLMKIVSYLQVSPDAFW,-3.17
13,HMDVAWDAIKAKLKEVVDAEDKAHPLNDDQIVKALGESGITIARRTIAKYRDLLGIPPARKRKA,-0.213
14,HMDVIGLEAAKSAAVKDAGISSPTFTKATLDRDDGRSLYEIEFISGSTKYEYDIDALTGSVLSKKTRALS,0.207
15,HMDVKPWERQEGESAKAFEAFTIYAGLGADRSLRAVAQQLGKSKTLMDRWSSTYSWVARAAEYDADLQRK,-0.489
16,HMDVLFGNRLRQLLDERNISQAHFADRIGVSRSRMNNYVAQRSEPDYATLIRIANTLDTSIDFLLGKS,-2.36
17,HMDVLIQEIGKRLRIQRLAMGLTQEELAKRAGISLSTLKLMEQQGKGSLQRLAKVAVVLDLDGDLRGLF,-2.87
18,HMDVLKVFSHNVRRYRTQLGLSQETVAFRTGLHRTYISAVERGKRSISLDNIQKIADALEVETYLLFI,-1.76
19,HMDVLNPGDKAVTTASWLNFRTGPGMQNKVASVLARNTTVNIIEKSNEWYKVSLANGSTGYVHGMYLSKIT,-1.73
20,HMDVLSQYGSRGEEVGKIQTRLKSWGYFSGEVTGYYGSQTTEAVKRFQQKHGLSATGVADRKTLELIGIS,-0.307
21,HMDVLTARENEVLQLLAKGMSNKEIASVLVITEKTVKAHVSSILSKLNLSDRTQAALYAVKNGI,-0.763
22,HMDVNMLVTGMLHKGEKSFVRVSFLRGKDWAEGIVPDAKIEKSQGFMEEEVARLEAYLLEQKSMIMEQA,-1.83
23,HMDVQGFVMDLDKPLDKEPIVEGFELKLEDSLTLVAAVNKDKSINSLFDELSKLGIKVKSMRNPP,0.0316
24,HMDVQNLTKKNQEFINIVTHQLLQSGKSDEDIQTILAKTLPEIIEKQKQGIPARSFLGAPTAWAAQFI,-0.0596
25,HMDVRLAKVYMLPANPYLRFIEFDDGTHGKFRAKPGKFGLGSVVKVKREDGDMYTLEGNYDGKDRL,-0.763
26,HMDVSPVRLIREARGLSQVEVAKAAGLSRAAYQNIEVGKTVPRASTMVNIARALGVSMDDLLAPV,-0.437

row,Sequence,soluble fraction (log2)
1,HMDVSVPDVTGTRLDRAQSLLEAQGLTLGKVEEFFHATEPAGIVYDQEPRPGTRVDEGTAISVSVSKGPEA,0.323
2,HMDWFDELKVSTDDSGRVTAPEESEFMFQTSNEKIFAGGDMVRGSDLVVTAIWEGRQAAEGIMDYLD,-0.02
3,HMDWPDDETIARIYALIKSDISSQARKVMELRFSEGMPFARIAAAMGISETAVYRHLSHALTVIRQKLN,-2.14
4,HMDWREMTAWMAELLKRRTGDDVETWNARVRESGAHDEASLRAWLTEQGVTGYAQTLLVMERFGYPDFF,-2.89
5,HMDYADISYKIFMNHIKNGQVERVELSGDPRIMGKLKDGTYFVTDNPRTENFKEFLLLNNVQVIETN,0.738
6,HMDYEVPEELQQKFEEFPRLKEAFYQLTPGRQHQYLYYFSQAKRSQTRYNRIDKYMNAILQGKGMK,-1.67
7,HMDYINALTTAGITDAKVIVTAPFDVSGTAALTGIYKAYEDITGSSLNEIAKAVGVEELITTGNLA,0.23
8,HMDYKAELDNIIRDHLDMEGPLLPVLHAVMARFSYIPKDAIPIIARKLNLSSAEVSGVISFYHDFKKEK,-1.81
9,HMDYKYYIVKEPMVVKNLELPVGTRIVYFNTSLFGDSESSRPLKEKNIYQIFFPDDKPLIWGGVPVSLIER,-2.24
10,HMDYNLTKNQKIVFNLLQNSGEPLKAYTILESLKREGLKSPLQVYRALDKLVELGIIHKIESQNSFI,-0.334
11,HMDYNMEEWSLTADQLKSGDTILILNLGKTATLLESTRGKKNVRVRMGNIKTIVETSSIRGNPHQ,-1.77
12,HMDYPFQYFNYSHLRILGVPAQLIKAVRKAPTLDAIEQLSGLSEKTKLWLLELATEPKLEDVLFDPGR,-1.98
13,HMDYRSMSGLQKAALLIMSVGEETAAKLFQLMHDDEIREISQTMANLGTVNATVIERLFVEFADAISS,-1.1
14,HMDYVKTLGETINVRVAASTDADIYKLLPGGEILNRVGYNEEWTKVMVDGSTFYVYSEYVIQTEPPA,-1.32
15,HMDYYSILGVDRNATGEDIKKAFKKKAMKYHPDRNPDNKESERKFKEAKEAYDTLSNPQKKSMYDQFGT,0.149
16,HMEAEDLRDWVGARGIAYTALRPAGIAVVNGRRVDVVSEGAFVNRDDPVEVVRVEGRRIVVKP,-0.0876
17,HMEAGTEYVERAADYIRSHFQEDLTVSKLALYVGLNRSYLTTVFQNTLHVSPQQFLMRFRMERAAQLLD,0.0997
18,HMEAGTVTVTHAAVYIRSGPGVSYPIAGKAAKNDTYTVLQKDGDWFQIRLPQGNTGWIAGWLVETGT,-1.69
19,HMEAISIYPNPTDNELHLSTSVQEVRIYNMYGIEVTRAANTDRLAVSHLPKGVYLVHADGAVLKMIK,-2.7
20,HMEAISSESIKKMIKSYVSGEDASKPLSDQQIADLLVKEGYMISRRTVAKYRDELGILSSSKRKR,-0.152
21,HMEAKQMDAWIVSEAKRQGGKIEPAAAYELSRHTATDTSIASQEIAKLLMYVDFKRPVTREDVVELVSA,0.0579
22,HMEALPELTDRQRQVYEFIEARIAEWGYPPTIREIGQHLGIKSTNGVADHLKALKRKGYLQQ,-0.566
23,HMEALTPREREVLTLMGQGRSNAEIATLLSIAPRTAKVHVQNILSKLGATNRTEAVSLAVRQGLIS,0.343
24,HMEASVNAPMPGKIVSVSVSEGQQVNAGDVLLILEAMKMQNEITADAAGTVKAINVNAGQSVKNGDSLVIL,0.832
25,HMEAVGLTPRQGDVLALLLQGKPNKLIARDLNLSVETVKDHVAAVLRALGVSTRTQAVLAVSQMQQQAAQ,-0.444
26,HMEAVLTISPGMYSESVSAELVRLGIITNQKEFNSYLVNNGYAERIQTGDFKIKADMSYDEIARIITK,-0.563

row,Sequence,soluble fraction (log2)
1,HMEAYDTMEDRTTLAPGFAKLDKRERYILHLRFFEGLTQSQIAERVGISQMHVSRLIRRSLEKLREEIGD,-2.67
2,HMEAYSAEAVRFRIKAMIESETVDDVMSDDKIVERLLADGVDIARRTVAKYREAMNIPSSVKRRRKLKGM,-1.92
3,HMEDDRMLVWFFRKSIQNGAQSEAEGRPIFEGKDYVHIQQPGERDYIEREAHQGDIGRWPRHWQAYQEGR,0.246
4,HMEDEAVMQLPLSELKGLSPELLAILNGAGYEKLKDVLDLEREDIERIPGMTPERNEQLVAFLAELTE,0.619
5,HMEDELFSVARAAFPEYASKIHMNYGSTVQSIARQSGVLTVSETKQLNENQQISYLEYSNGAVVLALA,-0.0187
6,HMEDELVMERFDINELVKSVVNANELRATQKNLSITYDILDTPLYVWADEYKVEEVVTNYLS,0.00277
7,HMEDIASESVKRVIRKIIDDEDKKSPLSDQAIVEILAKGEGIVIARRTVAKYREMMGILPSSKRKKH,-1.4
8,HMEDKIEESLEDNISELFAKTKDKYTLINDLYSKGYTVEELSRFSGLPSGEVRLVISLNSKN,-0.0653
9,HMEDKPITKEQKQAMFALLREHFSGDEGNAVYTAVLEREGLAPGDKIMSSVYDRLIDGINEAIRQKLEAGA,-0.0206
10,HMEDNLMIVVQVNGKKRSEIKVSIDASEDQIKQTALAEPNVQKFVEGHTIRKMILVPSKLLNIVV,-1.65
11,HMEDPKLAQLTEQERKILDLIADGLTNRQIAEKMFLAEKTVKNYVSTILAKMGMSNRSEAAAYVARLEAG,-0.0697
12,HMEDPPISQEQRQALFKMAHDHLGKDEGNKAILTLIQSHGLNSTTGMKVSTYNTIMEELVSTIQSLAA,-0.0374
13,HMEDPVAQEARAAFEVGRLLAAATGPVTLAAIRRAIDLPEERLEEILRRLEESGAVRRARDGWLPG,-0.0316
14,HMEDVDLFTKAMAALPNRYRDILLLRYSHGYTVEEISDILSMKPENVKKTIQRARKKLGEILEAEG,-1.25
15,HMEEDPVIAAQRFLNIFRQLHIFTAAKRKEFDELLLKQPASVKGMFASLPGGSVLQEYVNNLEQNAG,-0.564
16,HMEEFIEHTVEKGEFLSAIIVAYNQHLKSKGFKSITTRDILNANPKLKPELIQVGQKIKIPRRKK,-1.71
17,HMEEFLSFIADILEVDKNTLTLETSQDDVETWDSLMQLRLLGEIEAKYGVMIPMERISTIKKLNDFYQYIK,-1.12
18,HMEEIIPIRFLRHRVKRRETIFGLTQKYNITEDQLKRYNTRLYSEALERKMVLQIPVFPEVDED,-2.29
19,HMEEITLQEQINFIKDMLLNKEKFHLTDVITKKSKIYVVSLFLALLELIRLEEINFRQTQNFSDIIISRI,0.0172
20,HMEELGKVRPELDGNEIAKVLGITPGPVLGRAYTYLLSVRLDEGPIGPDVARERLLAWWAEQPES,-1.2
21,HMEELIEMNGVVMEILPDSRYRVTLDNGHKLIAYTGGKMKKNHIRILAGDKVTLELSPYDINNGRITFRHI,-1.66
22,HMEELTDSELNNLYRELFIARSNASDGVGIIEQKTIKGITYRLSNDNNYLIKELGNKEYIYKNGVWEEYT,-0.155
23,HMEENNIVIYITGAVKKEGIYEIKENSRISDAIEAAGGLLENANIKDINLAYIIEDGVKIYIPTNEEVNK,-0.409
24,HMEEPFRIEKKGDIYYISGKTVERLVAMTDLDNDSAVKRLQRTLKRMGVEDALREHGINPGDTVVIGNYEF,-0.201
